Test results from patent publication US20230059489A1.

Biological target: human FLT3 (hFLT3) (human) (UniProt P36888)
Experiment: SPR, Table 6, scFv format; set-up and antigen species not described

Chain of human FLT3 (hFLT3) (human) (P36888 27-543 limits assumed): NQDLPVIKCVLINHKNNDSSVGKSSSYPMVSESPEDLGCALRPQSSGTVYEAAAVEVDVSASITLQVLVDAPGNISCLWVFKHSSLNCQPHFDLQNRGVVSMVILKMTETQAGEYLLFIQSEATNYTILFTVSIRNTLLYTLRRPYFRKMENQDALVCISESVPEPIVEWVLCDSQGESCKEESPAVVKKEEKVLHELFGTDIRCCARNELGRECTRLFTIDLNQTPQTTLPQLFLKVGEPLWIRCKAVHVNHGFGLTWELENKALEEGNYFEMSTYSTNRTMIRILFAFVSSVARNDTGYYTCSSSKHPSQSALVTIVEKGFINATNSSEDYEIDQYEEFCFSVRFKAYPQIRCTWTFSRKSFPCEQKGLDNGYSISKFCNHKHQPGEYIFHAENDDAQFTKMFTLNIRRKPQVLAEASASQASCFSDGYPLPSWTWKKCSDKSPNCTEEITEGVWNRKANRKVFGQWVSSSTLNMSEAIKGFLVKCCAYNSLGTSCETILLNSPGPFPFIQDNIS

Row | Kd [nM] | koff [s⁻¹] | kon [M⁻¹ s⁻¹] | t1/2 [min] | Binder
1 | 1 | 0.000197 | 189000 | 59 | P5F7 (scFv format) (scFv, from a related filing, part only) scFv: EVQLLESGGGLVQPGGSLRLSCAASGFTFSSYAMNWVRQAPGKGLEWVSSISGGGRSTYYADSVKGRFTISRDNSKNTLYLQMNSLRAEDTAVYYCARDLSPSDVGWGYGFDIWGQGTLVTVSSGGGGSGGGGSGGGGSEIVLTQSPATLSLSPGERATLSCRASQSVSSNLAWYQQKPGQAPRLLIYDTFTRATGIPARFSGSGSGTDFTLTISRLEPEDFAVYYCQQYGSSPPTFGQGTRLEIK
2 | 126 | 0.0286 | 226000 | 0.4 | P9F1 (scFv format) (scFv, part only; not given: linker, domain order, tags, V domains shown, not shown: another chain or arm of the molecule; small tags and cut ends) VH: EVQLLESGGGLVQPGGSLRLSCAASGFIFSSFAMSWVRQAPGKGLEWVSDISGSGASTYYADSVKGRFTISRDNSKNTLYLQMNSLRAEDTAVYYCASASGGSGSYWPYMDPWGQGTLVTVSS VL: QSVLTQPPSASGTPGQRVTISCSGSGSNIGSNYVYWYQQLPGTAPKLLIYRNNQRPSGVPDRFSGSKSGTSASLAISGLRSEDEADYYCAAWDGSLSRPVFGTGTKLTVL
3 | 9.1 | 0.00187 | 205000 | 6.2 | P7H3 (scFv format) (scFv, part only; not given: linker, domain order, tags, V domains shown, not shown: another chain or arm of the molecule; small tags and cut ends) VH: EVQLLESGGGLVQPGGSLRLSCAASGFTFSSYAMHWVRQAPGKGLEWVSAISGSGGSTYYADSVKGRFTISRDNSKNTLYLQMNSLRAEDTAVYYCARGTRWWWGDAFDHWGQGTLVTVSS VL: QSVLTQPPSVSVAPGKTARITCGGNNIGSKSVHWYQQKPGQAPVLVIYYDSDRPSGIPERFSGSNSGNTATLTISRVEAGDEADYYCQVWDSSTAWVFGGGTKLTVL

Continued, binder first:

Row | Binder | Kd [nM] | koff [s⁻¹] | kon [M⁻¹ s⁻¹] | t1/2 [min]
4 | P5A3 (scFv format) (scFv, part only; not given: linker, domain order, tags, V domains shown, not shown: another chain or arm of the molecule; small tags and cut ends) VH: QVQLVQSGAEVKKPGSSVKVSCKASGGTFSSYYIGWVRQAPGQGLEWMGGIIPWFGTANYAQKFQGRVTITADKSTNTAYMELSSLRSEDTAVYYCAADHHDSPSGYTSGGFDVWGQGTLVTVSS VL: QSALTQPASVSGSPGQSITISCTGTSSDVGGYNYVSWYQQHPGKAPKLMIYEVSKRPSGVPDRFSGSKSGNTASLTVSGLQAEDEADYYCSSYAGSNTVVFGGGTKLTVL | 216 | 0.0175 | 81000 | 0.7
5 | P1B4 (scFv format) (scFv, part only; not given: linker, domain order, tags, V domains shown, not shown: another chain or arm of the molecule; small tags and cut ends) VH: QVQLVQSGAEVKKPGSSVKVSCKASGGVFSRYALSWVRQAPGQGLEWMGGIIPMLGFANYAQKFQGRVTITADESTSTAYMELSSLRSEDTAVYYCATLDFGALDYWGQGTLVTVSS VL: EIVLTQSPGTLSLSPGERATLSCRASQSVPNEQLAWYQQKPGQAPRLLIYDASSRATGIPDRFSGSGSGTDFTLTISRLEPEDFAVYYCQQYGSPPLTFGQGTKVEIK | 27.3 | 0.00327 | 120000 | 3.5
6 | P1A5 (scFv format) (scFv, part only; not given: linker, domain order, tags, V domains shown, not shown: another chain or arm of the molecule; small tags and cut ends) VH: QVQLVQSGAEVKKPGSSVKVSCKASGGVFSRYALSWVRQAPGQGLEWMGGIIPMLGFANYAQKFQGRVTITADESTSTAYMELSSLRSEDTAVYYCATLDFGALDYWGQGTLVTVSS VL: EIVLTQSPGTLSLSPGERATLSCRASQAVDSSDLAWYQQKPGQAPRLLIYDAYTRPSGIPDRFSGSGSGTDFTLTISRLEPEDFAVYYCQQYGSSPLTFGGGTKLEIK | 1.1 | 0.000292 | 259000 | 40
7 | P3E10 (scFv format) (scFv, part only; not given: linker, domain order, tags, V domains shown, not shown: another chain or arm of the molecule; small tags and cut ends) VH: QVQLVQSGAEVKKPGSSVKVSCKASGGTFSSYAIQWVRQAPGQGLEWMGGIVGSWGLANYAQKFQGRVTITTDKSTSTAYMELSSLRSEDTAVYYCATSAFGELASWGQGTLVTVSS VL: EIVLTQSPGTLSLSPGERATLSCRASQSVPSSQLAWYQQKPGQAPRLLIYDASSRATGIPDRFSGSGSGTDFTLTISRLEPEDFAVYYCQQYGSSPLTFGQGTKVEIK | 65.1 | 0.0112 | 172000 | 1
8 | P4H11 (scFv format) (scFv, part only; not given: linker, domain order, tags, V domains shown, not shown: another chain or arm of the molecule; small tags and cut ends) VH: EVQLLESGGGLVQPGGSLRLSCAASGFTFSSYAMNWVRQAPGKGLEWVSSISGGGRSTYYADSVKGRFTISRDNSKNTLYLQMNSLRAEDTAVYYCARDLSPSDVGWGYGFDIWGQGTLVTVSS VL: EIVLTQSPGTLSLSPGERATLSCRASQSVSNTYLAWYQQKPGQAPRLLIYDTSSRATGIPDRFSGSGSGTDFTLTISRLEPEDFAVYYCQQYGSSLTFGQGTKVEIK | 58.3 | 0.00933 | 160000 | 1
9 | P4C7 (scFv format) (scFv, part only; not given: linker, domain order, tags, V domains shown, not shown: another chain or arm of the molecule; small tags and cut ends) VH: QVQLVQSGAEVKKPGSSVKVSCKASGGTFSSYTISWVRQAPGQGLEWMGGIIPAFGIANYAQKFQGRVTITADKSTSTAYMELSSLRSEDTAVYYCAKGGSYSLDYFDIWGQGTLVTVSS VL: EIVLTQSPGTLSLSPGERATLSCRASQYVSASLLAWYQQKPGQAPRLLIYGASTRATGIPDRFSGSGSGTDFTLTISRLEPEDFAVYYCQQYARSSTFGQGTKVEIK | 13.6 | 0.00164 | 121000 | 7
